B1: F265-5B7 anti-EGFRvIII monoclonal antibody (antibody, V domains shown)
VH: QIQLVQSGPELKKPGETVMISCKASGYSFTNYGMNWVKQAPEKDLKWMGWINTYTGESRYVDEFKGRFAFSLETSVSIVYLKINNLKNEDMATYFCARGPNFDVWGTGTTVTVSS
VL: not shown
notes: Mouse hybridoma IgG, tested as supernatant or Protein G purified mAb; also called 5B7-2
B2: F269-3D12 anti-EGFRvIII monoclonal antibody (antibody, V domains shown)
VH: EVQLQQSGPELVKPGSSVRISCKASGYTFTDYNMDWVKQSHGKSLEWIGTINPNNGGTSYNQKFKGKATLTVDKSSSTAYMELRSLTSEDSAVYYCARVRQLGLWFAYWGQGTLVTVSA
VL: EIVLTQSPALMAASPGEKVTITCSVSSSISSSNLHWYQQKSETSPKPWIYGTSNLASGVPVRFSGSGSGTSYSLTISSMEAEDAATYYCQQWSSYPLTFGSGTKLEIK
notes: Mouse hybridoma IgG, tested as supernatant or Protein G purified mAb; also called 3D12-2

What was measured:
[1] = biological target: T1, EGFRvIII amino acid residues 15 to 37 with Val17 to Ala mutation, yeast-displayed (human, not fully specified); assay: flow cytometry on yeast displaying the mutated 15-37 fragment
T1 construct: The entry already carries the mutation
T1 peptide: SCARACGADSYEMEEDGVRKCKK
From the text: (§1) Assessment of the binding of anti-EGFRvIII monoclonal antibodies to the fusion proteins expressed on yeast cell surface was done by flow cytometry analysis. Yeast cells were labeled with both the anti-EGFRvIII monoclonal antibody and chicken anti-Myc antibody the latter being used to monitor the level of expression of the fusion protein. Following a wash step, binding of the primary antibodies is probed by a two-color indirect fluorescence labeling using a specific mouse and chicken secondary antibodies for each of the primary antibody respectively.
(§2) To further characterize mAb epitopes within the EGFRvIII 15-37 region, an alanine scan of this region was performed, and modified fragments were expressed at the surface of the yeast. […] The resulting DNAs were expressed at the surface of the yeast and each anti-EGFRvIII mAbs was tested on the corresponding yeast mutant strain by flow cytometry analysis. The original Ala19 and Ala22 were not mutated. Thus, this assay determined the contribution of each amino acid(s) in mAb binding in comparison to the original wild-type fragment (SEQ ID NO:5) which is attributed the value of 100%.

[2] = biological target: T2, EGFRvIII amino acid residues 15 to 37 with Asp23 to Ala mutation, yeast-displayed (human, not fully specified); assay: as above
T2 construct: The entry already carries the mutation
T2 peptide: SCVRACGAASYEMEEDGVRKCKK
From the text: as §1, §2

[3] = biological target: T3, EGFRvIII amino acid residues 15 to 37 with Ser15 to Ala mutation, yeast-displayed (human, not fully specified); assay: flow cytometry on yeast displaying the Ala-mutated 15-37 fragment; normalized to Myc-tag; wild-type fragment = 100%
T3 construct: The entry already carries the mutation
T3 peptide: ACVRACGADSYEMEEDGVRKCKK
From the text: as §1, §2

[4] = biological target: T4, EGFRvIII amino acid residues 15 to 37 with Cys16 to Ala mutation, yeast-displayed (human, not fully specified); assay: as above
T4 construct: The entry already carries the mutation
T4 peptide: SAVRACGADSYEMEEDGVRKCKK
From the text: as §1, §2

[5] = biological target: T5, EGFRvIII amino acid residues 15 to 37 with Ser24 to Ala mutation, yeast-displayed (human, not fully specified); assay: as above
T5 construct: The entry already carries the mutation
T5 peptide: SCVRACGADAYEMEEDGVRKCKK
From the text: as §1, §2

[6] = biological target: T6, EGFRvIII amino acid residues 15 to 37 with Tyr25 to Ala mutation, yeast-displayed (human, not fully specified); assay: as above
T6 construct: The entry already carries the mutation
T6 peptide: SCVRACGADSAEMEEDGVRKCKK
From the text: as §1, §2

[7] = biological target: T7, EGFRvIII amino acid residues 15 to 37 with Glu26 to Ala mutation, yeast-displayed (human, not fully specified); assay: as above
T7 construct: The entry already carries the mutation
T7 peptide: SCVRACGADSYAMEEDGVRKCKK
From the text: as §1, §2

[8] = biological target: T8, EGFRvIII amino acid residues 15 to 37 with Glu28 to Ala mutation, yeast-displayed (human, not fully specified); assay: as above
T8 construct: The entry already carries the mutation
T8 peptide: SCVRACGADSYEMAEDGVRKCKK
From the text: as §1, §2

[9] = biological target: T9, EGFRvIII amino acid residues 15 to 37 with Glu29 to Ala mutation, yeast-displayed (human, not fully specified); assay: as above
T9 construct: The entry already carries the mutation
T9 peptide: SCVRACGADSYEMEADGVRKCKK
From the text: as §1, §2

[10] = biological target: T10, EGFRvIII amino acid residues 15 to 37 with Asp30 to Ala mutation, yeast-displayed (human, not fully specified); assay: as above
T10 construct: The entry already carries the mutation
T10 peptide: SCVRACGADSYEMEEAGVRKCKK
From the text: as §1, §2

[11] = biological target: T11, EGFRvIII amino acid residues 15 to 37 with Gly31 to Ala mutation, yeast-displayed (human, not fully specified); assay: as above
T11 construct: The entry already carries the mutation
T11 peptide: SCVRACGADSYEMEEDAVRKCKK
From the text: as §1, §2

[12] = biological target: T12, EGFRvIII amino acid residues 15 to 37 with Lys34 to Ala mutation, yeast-displayed (human, not fully specified); assay: as above
T12 construct: The entry already carries the mutation
T12 peptide: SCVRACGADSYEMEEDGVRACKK
From the text: as §1, §2

[13] = biological target: T13, EGFRvIII amino acid residues 15 to 37 with Lys36 to Ala mutation, yeast-displayed (human, not fully specified); assay: as above
T13 construct: The entry already carries the mutation
T13 peptide: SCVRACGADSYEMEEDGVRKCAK
From the text: as §1, §2

[14] = biological target: T14, EGFRvIII amino acid residues 15 to 37 with Lys37 to Ala mutation, yeast-displayed (human, not fully specified); assay: as above
T14 construct: The entry already carries the mutation
T14 peptide: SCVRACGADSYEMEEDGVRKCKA
From the text: as §1, §2

[15] = biological target: T6, EGFRvIII amino acid residues 15 to 37 …; assay: flow cytometry on yeast displaying the mutated 15-37 fragment
From the text: as §1, §2

[16] = biological target: T7, EGFRvIII amino acid residues 15 to 37 …; assay: as above
From the text: as §1, §2

[17] = biological target: T1, EGFRvIII amino acid residues 15 to 37 …; assay: flow cytometry on yeast displaying the Ala-mutated 15-37 fragment; normalized to Myc-tag; wild-type fragment = 100%
From the text: as §1, §2

[18] = biological target: T2, EGFRvIII amino acid residues 15 to 37 …; assay: as above
From the text: as §1, §2

| Binder | binding result [1] | binding result [2] | % of binding compared to the wild-type sequence [3] | % of binding compared to the wild-type sequence [4] | % of binding compared to the wild-type sequence [5] | % of binding compared to the wild-type sequence [6] | % of binding compared to the wild-type sequence [7] | % of binding compared to the wild-type sequence [8] | % of binding compared to the wild-type sequence [9] | % of binding compared to the wild-type sequence [10] | % of binding compared to the wild-type sequence [11] | % of binding compared to the wild-type sequence [12] | % of binding compared to the wild-type sequence [13] | % of binding compared to the wild-type sequence [14] | binding result [15] | binding result [16] | % of binding compared to the wild-type sequence [17] | % of binding compared to the wild-type sequence [18] |
| --- | --- | --- | --- | --- | --- | --- | --- | --- | --- | --- | --- | --- | --- | --- | --- | --- | --- | --- |
| B1 | no binding | no binding | 91.6% | 240% | 230% | 192% | 140% | 78.5% | 110% | 106% | 98.9% | 193% | 87.2% | 143% |  |  |  |  |
| B2 |  |  | 90.2% | 171% | 233% |  |  | 71% | 47.7% | 78.5% |  | 137% | 95.1% | 162% | no binding | no binding | 116% | 62.4% |

Reference: US20220323495A1 (NATIONAL RESEARCH COUNCIL OF CANADA, published 2022)
